Reference: patent US20040001835A1, “Prevention or treatment of cancer using integrin alphavbeta3 antagonists in combination with other agents” (MedImmune, Inc., priority 2002, published 2004)

Key:
Format in all cases: binding
[1] = target: T1, αvβ3 expressed on placenta (placental trophoblasts) (Rattus norvegicus, UniProt Q8R2H2); assay: Immunohistochemical staining of placental trophoblasts; conditions: frozen thin sections, antibody 10 μg/ml
T1 construct: from tissue; host or cells: placenta (frozen sections)
T1 sequence (Q8R2H2 26-787): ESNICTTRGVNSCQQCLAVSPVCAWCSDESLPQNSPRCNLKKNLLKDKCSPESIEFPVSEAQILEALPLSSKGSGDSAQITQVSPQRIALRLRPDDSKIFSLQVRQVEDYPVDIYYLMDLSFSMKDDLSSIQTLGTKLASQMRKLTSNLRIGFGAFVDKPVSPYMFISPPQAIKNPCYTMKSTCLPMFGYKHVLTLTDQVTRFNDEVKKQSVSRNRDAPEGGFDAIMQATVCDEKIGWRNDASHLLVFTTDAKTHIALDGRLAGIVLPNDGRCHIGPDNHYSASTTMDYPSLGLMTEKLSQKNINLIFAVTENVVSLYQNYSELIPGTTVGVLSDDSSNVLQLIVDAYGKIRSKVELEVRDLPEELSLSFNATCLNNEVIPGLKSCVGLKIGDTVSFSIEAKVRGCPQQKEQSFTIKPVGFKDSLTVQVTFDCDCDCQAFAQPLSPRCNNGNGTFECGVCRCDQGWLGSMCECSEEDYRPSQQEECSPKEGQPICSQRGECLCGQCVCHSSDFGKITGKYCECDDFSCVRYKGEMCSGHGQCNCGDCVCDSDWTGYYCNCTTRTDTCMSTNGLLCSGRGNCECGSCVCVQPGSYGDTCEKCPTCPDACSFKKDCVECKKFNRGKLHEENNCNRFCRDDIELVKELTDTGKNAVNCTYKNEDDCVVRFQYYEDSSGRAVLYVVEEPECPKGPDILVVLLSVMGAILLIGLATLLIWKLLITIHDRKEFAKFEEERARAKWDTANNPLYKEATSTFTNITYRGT
Description: (§1) Table 3. Immunohistochemical staining of placental trophoblasts. Placental tissue, a rich source of αvβ3, was collected either immediately after parturition or from freshly-sacrificed, late-term pregnant animals. Tissue fragments, approximately 1 cm^3, were frozen in OCT, and thin sections were stained with monoclonal antibodies (10 μg/ml) at Sierra Biomedical (Sparks, Nev.). Vitaxin® recognized αvβ3 expressed on human, monkey, guinea pig, hamster and rabbit placenta, while […] with human and monkey αvβ3. […] ND, not done.

[2] = target: T2, αvβ3 expressed on placenta (placental trophoblasts) (Homo sapiens, UniProt P05106); assay: as above; conditions: frozen thin sections, antibody 10 μg/ml
T2 construct: from tissue; host or cells: placenta (frozen sections)
Description: as §1

[3] = target: T3, human β3 (αvβ3 on HEK293 cells) (Homo sapiens, UniProt P05106); assay: FACS analysis of HEK293 cells transfected with human β3 cDNA; conditions: wild type human β3, flow cytometry, FIG. 4
T3 construct: expressed in transfected cells; host or cells: HEK293
Description: FIG. 4. Binding of Integrin αvβ3 specific antibodies to human β3 containing rat residues.
Sequence comparison of residues 164 to 202 of β3 integrins from different species and design of mutations. To further characterize the binding epitope of Vitaxin®, the gene encoding β3 was cloned and sequenced from hamster cDNA. The amino acids in the region previously proposed to contain the LM609 binding epitope are shown above (dashed lines depict conserved residues). To determine which residues in the human sequence were essential for antibody binding, the amino acids shown in color were mutated to the corresponding rat residues. The resulting genes were transfected to HEK293 cells which express endogenous human αv. Resulting cell lines were analyzed by flow cytometry for antibody binding.
This protocol is used to assess the surface expression of integrins in HEK-293 cells transfected with various Integrin subunits. Primary antibodies bound to the integrins are detected by fluorochrome-conjugated secondary antibodies and analyzed by flow cytometry.
1. Wash adherent cells twice with 5 ml of PBS.
2. Add 1.5 ml of trypsin solution or cell dissociation solution, incubate at 37_C. foir 2 min.
3. Add 3 ml of culture medium or FACs buffer to the plate and loosen cells from the plate by pipetting. Count cells. Resuspend cells in FACs buffer at 5×10^6 per ml.
4. […]

T2 sequence (P05106 27-788): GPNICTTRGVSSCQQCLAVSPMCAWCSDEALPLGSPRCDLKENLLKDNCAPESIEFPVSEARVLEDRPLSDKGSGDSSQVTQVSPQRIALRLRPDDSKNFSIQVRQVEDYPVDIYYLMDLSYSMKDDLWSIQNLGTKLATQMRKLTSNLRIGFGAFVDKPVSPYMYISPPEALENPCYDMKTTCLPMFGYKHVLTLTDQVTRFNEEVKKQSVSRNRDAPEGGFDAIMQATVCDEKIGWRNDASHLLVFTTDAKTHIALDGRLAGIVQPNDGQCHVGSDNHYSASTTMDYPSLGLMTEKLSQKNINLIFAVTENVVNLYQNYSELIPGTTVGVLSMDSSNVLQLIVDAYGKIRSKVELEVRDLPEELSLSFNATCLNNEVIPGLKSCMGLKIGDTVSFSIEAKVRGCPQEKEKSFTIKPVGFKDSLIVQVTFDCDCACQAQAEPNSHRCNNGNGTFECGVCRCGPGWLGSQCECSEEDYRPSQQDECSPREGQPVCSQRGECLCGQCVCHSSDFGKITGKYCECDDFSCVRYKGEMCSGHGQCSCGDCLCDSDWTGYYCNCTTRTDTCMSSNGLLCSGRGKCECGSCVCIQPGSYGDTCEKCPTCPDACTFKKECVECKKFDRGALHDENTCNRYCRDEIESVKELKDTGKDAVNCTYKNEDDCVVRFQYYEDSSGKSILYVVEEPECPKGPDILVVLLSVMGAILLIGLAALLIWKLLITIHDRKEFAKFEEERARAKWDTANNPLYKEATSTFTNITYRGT
T2 sequence (P06756 31-889 partner limits assumed): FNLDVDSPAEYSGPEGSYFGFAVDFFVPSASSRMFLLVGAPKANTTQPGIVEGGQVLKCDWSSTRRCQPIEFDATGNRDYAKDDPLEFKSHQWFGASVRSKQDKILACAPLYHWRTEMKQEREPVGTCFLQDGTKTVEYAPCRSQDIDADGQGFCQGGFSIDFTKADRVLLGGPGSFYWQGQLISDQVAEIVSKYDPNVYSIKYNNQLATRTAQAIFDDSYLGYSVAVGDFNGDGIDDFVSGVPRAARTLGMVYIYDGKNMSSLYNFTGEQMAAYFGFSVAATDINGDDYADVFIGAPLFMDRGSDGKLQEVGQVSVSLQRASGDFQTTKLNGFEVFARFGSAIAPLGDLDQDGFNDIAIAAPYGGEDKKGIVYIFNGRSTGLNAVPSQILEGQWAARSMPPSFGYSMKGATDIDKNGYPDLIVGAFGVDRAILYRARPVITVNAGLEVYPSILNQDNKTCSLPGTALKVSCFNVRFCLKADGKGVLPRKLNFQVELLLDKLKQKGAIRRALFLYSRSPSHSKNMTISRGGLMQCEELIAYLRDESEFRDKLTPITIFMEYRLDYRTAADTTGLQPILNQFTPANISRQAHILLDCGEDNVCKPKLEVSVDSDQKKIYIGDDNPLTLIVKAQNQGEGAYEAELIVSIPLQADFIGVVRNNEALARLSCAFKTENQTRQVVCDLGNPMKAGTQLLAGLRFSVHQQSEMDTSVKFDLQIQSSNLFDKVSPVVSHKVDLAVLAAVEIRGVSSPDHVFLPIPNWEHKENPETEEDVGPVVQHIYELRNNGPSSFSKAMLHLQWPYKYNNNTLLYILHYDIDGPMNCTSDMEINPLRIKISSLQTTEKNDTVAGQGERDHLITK
T2 sequence (P06756 891-1048 partner limits assumed): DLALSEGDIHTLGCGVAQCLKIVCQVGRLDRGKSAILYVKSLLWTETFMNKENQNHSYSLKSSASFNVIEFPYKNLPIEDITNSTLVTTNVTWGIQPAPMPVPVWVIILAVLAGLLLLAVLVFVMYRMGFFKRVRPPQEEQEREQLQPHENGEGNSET
T3 sequence (P05106 27-788): as the sequence (P05106 27-788) above
T3 sequence (P06756 31-889 partner limits assumed): as the sequence (P06756 31-889 partner limits assumed) above
T3 sequence (P06756 891-1048 partner limits assumed): as the sequence (P06756 891-1048 partner limits assumed) above

- Staining of Placental Trophoblasts [1]: Negative
- Staining of Placental Trophoblasts [2]: recognized
- binding to HEK293 cells transfected with human β3 cDNA [3]: detectable
B1: Vitaxin®: humanized blocking monoclonal antibody that binds Integrin αVβ3 (MEDI-522, MedImmune); humanized and optimized version of LM609 (antibody, chains of the INN, looked up, V domains shown)
VH: QVQLVESGGGVVQPGRSLRLSCAASGFTFSSYDMSWVRQAPGKGLEWVAKVSSGGGSTYYLDTVQGRFTISRDNSKNTLYLQMNSLRAEDTAVYYCARHLHGSFASWGQGTTVTVSS
VL: EIVLTQSPATLSLSPGERATLSCQASQSISNFLHWYQQRPGQAPRLLIRYRSQSISGIPARFSGSGSGTDFTLTISSLEPEDFAVYYCQQSGSWPLTFGGGTKVEIK
